Data taken from publication PMC2892505, “SUMO-1 possesses DNA binding activity”.
One block for each molecule: values may come before it.

Key:
GST-SUMO-1 [1] = assay: cross-linking; about 100 ng protein without or with increasing dsDNA, 10 min 37°C in NMR buffer (100 mM Na2PO4 pH 6.6, 1 mM EDTA, 1 mM DTT), UV 312 nm 10 min, SDS-PAGE and western blot (anti-GST or anti-SUMO-1); also with DNaseI treatment
SUMO-1 = SUMO-1 (human, UniProt P63165 1-101); assay: UV crosslinking, Western blot; NMR: 100 mM NaPi pH 6.6, 1 mM DTT, 1 mM EDTA, temperature not stated; UV crosslink: 100 ng GST-SUMO-1 with 500 ng dsDNA, buffer not stated; conditions: protein: recombinant; tags: untagged (GST removed by thrombin); 15N-labeled for NMR; blunt
GST-SUMO-1 [2] = target: GST-SUMO-1 (human, UniProt P63165 1-101); assay: UV crosslinking, Western blot; complex migrates faster than with 65-mer; NMR: 100 mM NaPi pH 6.6, 1 mM DTT, 1 mM EDTA, temperature not stated; UV crosslink: 100 ng GST-SUMO-1 with 500 ng dsDNA, buffer not stated; conditions: protein: recombinant; chain copies: 2; blunt
Chain of GST-SUMO-1 (human, UniProt P63165 1-101) (P63165 whole entry): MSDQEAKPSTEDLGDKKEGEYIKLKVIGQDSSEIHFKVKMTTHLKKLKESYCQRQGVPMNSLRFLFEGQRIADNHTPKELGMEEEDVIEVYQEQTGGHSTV

Chain of SUMO-1 (P63165 whole entry): as above

stoichiometry N (GST-SUMO-1 [1]): 2
Molecule: GST-SUMO-1

B1: 27-mer (dsDNA)
DNA 1: CGGGGCCGGGGCGGGCCGCGCAAGCAG
DNA 2: CTGCTTGCGCGGCCCGCCCCGGCCCCG
binding result (SUMO-1): binds
binding result (GST-SUMO-1 [2]): binds
